Data reported in the DeepSol protein solubility set.

Assay: soluble on expression in E. coli; label from the status in PepcDB or PDB records

Sequence | soluble on expression in E. coli
MDIKHEMIYREDDVLLVKSEPQLHSPCATGSNGLPAGAGSNLLCASNGLVTTLASGSSLNGLTNNVPSNGLSSSGPFSSIGGGVSASKRQRTDDWLSSPSGNVPPLTPSPGPPSHPYTVISNGYSSPMSSGSYDPYSPNGKIGREDLSPSSLNGYSADSCDSKKKKGPTPRQQEELCLVCGDRASGYHYNALTCEGCKGFFRRSITKNAVYQCKYGNNCEIDMYMRRKCQECRLKKCLSVGMRPECVVPEVQCAVKRKEKKAQKEKDKPNSSTNGSPDVIKVEPELSDSEKTLCNGSKGISPEQEELIHRLVYFQNEYEHPSEEDVKRIINQPMDGEDQCDVRFRHITEITILTVQLIVEFAKRLPGFDKLLREDQIALLKACSSEVMMFRMARRYDVQTDSILFVNNQPYSRDSYNLAGMGETIEDLLHFCRTMYSMRVDNAEYALLTAIVIFSERPALIEGWKVEKIQEIYLEALRAYVDNRRKPKPGTIFAKLLSVLTELRTLGNQNSEMCFSLKLKNKKLPPFLAEIWDVDLKT | soluble
MAHHHHHHMRRSSMKFGLRQILSEELGKAAIFLRFKANEYIASTARACQTLTGAETNPEQANKRRKHRQVYEEILRQRQQVAQEAARRAMEGKSLRERLMASASAALKGLKEATSTNAGALALLQHCTAAHAAEVAVEQGIDVKSVTMQVEERKTGSQVGSETVVVGYIDAPNTSEEEMMAFAEQLSKKCPMANAMRGKIEWRRANGEVQHNDEQTTGNDNSVGSTSDKAGDAGSIPHGMPGTRYYSHESMRRGAGGVGDGDELHLPGVTKGSGKGPDK | soluble
MAHHHHHHMEDGVIISGDYIQMEKDKVKRINEHNFEQVHDVESDNLYRSKCSGILLKTPYYPYKYDIMNTSYKYMPKVGDLVIGIVKSKKLDYYQMDINCNCECIIHKIESFKYATKNSFPNLANGTLLYMIVEKINLDNNSVVASCINSSDVKSWINYENYLGELVDGYMFPVSISYAKSLIGDKCYLLDLIGADVSYEVAVGHNGR | not soluble
MSLTPTELNLKAKALLETHFDDIVLSGEISKITLHGSGHWYFDLKDERSSIACAMFKGANLKVGFKPAVGDFLELCGSVSLYPESGRYQFIATSMKKAGFGDLEAQFLALKERLQKEGLFDPRFKKSLPKFPKKVGIITSKTSAALQDMLKLIHQKEYFLAKIYIFDALTQGNNAPFSLIQALKKADDMDLDVLIIARGGGSREDLFCFNDENLAREIFKAKTPIISAIGHEIDYVISDFVADFRAPTPSAAIDTLFYSKLDIEQSLDLMEEKLMQLWNYKIQNYENLLLNLSKFFKFNSLPKIIDEKIKQSHNIEKQLNHLLANQMRYNELKLDKLQNAYLQHENFFNKSKKFICIRKNGKIANLEDLKSDDIVILSSQTSQKEAKILEGHHHHHH | not soluble
MLIYISLIMKMERLSMVILELYQNDYSKDLVAFDSIEDGKAFVAQIPGYTLETEDGFEVEYFNPKNIPDYMEIIFNGNIVPLSKFMFDPEENVNIIWKEISNLSLKNDRVIEGYSKIDAYVVNNHEVKAYVETRETNYRKAKDFLESRGYEIDRSFFGSEDGEAILYRKKGIEVWHFLCHLDPMFVEIEDVEGYVKEEVGEIQ | not soluble
SLRRWDQGLEKPRLDYSEFFTEDVGQLPGLTIWQIENFVPVLVEEAFHGKFYEADCYIVLKTFLDDSGSLNWEIYYWIGGEATLDKKACSAIHAVNLRNYLGAECRTVREEMGDESEEFLQVFDNDISYIEGGTASGFYTVEDTHYVTRMYRVYGKKNIKLEPVPLKGSSLDPRFVFLLDQGLDIYVWRGAQATLSNTTKARLFAEKINKNERKGKAEITLLVQGQEPPGFWDVLGGEPSEIKNHVPDDFWPPQPKLYKVGLGLGYLELPQINYKLSVEHKKRPKVELMPGMRLLQSLLDTRCVYILDCWSDVFIWLGRKSPRLVRAAALKLGQELCGMLHRPRHTVVSRSLEGTEAQVFKAKFKNWDDVLTVDYTRNAEAVLQGQGLSGKVKRDTEKTDQMKADLTALFLPRQPPMPLAEAEQLMEEWNEDLDGMEGFVLEGRKFTRLPEEEFGHFYTQDCYVFLCRYWVPVEYEEEEKTEDKEGKASAEAREGEEAAAEAEEKQPEEDFQCIVYFWQGREASNMGWLTFTFSLQKKFESLFPGKLEVVRMTQQQENPKFLSHFKRKFIIHRGKRKVTQGTLQPTLYQIRTNGSALCTRCIQINTDSSLLNSEFCFILKVPFESEDNQGIVYAWVGRASDPDEAKLAEDILNTMFDASYSKQVINEGEEPENFFWVGIGAQKPYDDDAEYMKHTRLFRCSNEKGYFAVTEKCSDFCQDDLADDDIMLLDNGQEVYMWVGTQTSQVEIKLSLKACQVYIQHTRSKEHERPRRLRLVRKGNEQRAFTRCFHAWSTFRQAPA | not soluble
